A word on the Km: it is the concentration of substrate that gives half-maximal velocity.

Results on three sequences are retold here after patent US20030148383A1, “Methods for identifying proteins with N-terminal N-myristoylation” (Boehringer Ingelheim International GmbH, priority 2001, published 2003).

Experiment [1] concerns the target T1, Myristoyl-CoA:protein N-myristoyltransferase from Saccharomyces cerevisiae (Saccharomyces cerevisiae, UniProt P14743).
T1 sequence (P14743 1-455): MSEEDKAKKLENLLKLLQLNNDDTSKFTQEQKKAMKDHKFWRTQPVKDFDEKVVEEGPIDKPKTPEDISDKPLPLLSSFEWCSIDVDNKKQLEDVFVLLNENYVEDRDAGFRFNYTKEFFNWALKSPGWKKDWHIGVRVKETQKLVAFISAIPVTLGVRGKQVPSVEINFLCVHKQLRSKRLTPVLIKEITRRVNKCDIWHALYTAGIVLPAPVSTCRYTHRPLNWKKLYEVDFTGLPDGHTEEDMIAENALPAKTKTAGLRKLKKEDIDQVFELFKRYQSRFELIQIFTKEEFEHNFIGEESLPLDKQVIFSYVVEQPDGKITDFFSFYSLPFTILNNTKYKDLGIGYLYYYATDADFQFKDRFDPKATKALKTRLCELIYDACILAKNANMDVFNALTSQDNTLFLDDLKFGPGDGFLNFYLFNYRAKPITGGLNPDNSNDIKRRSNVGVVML
Put plainly: kinetic measurements of substrate specificity of yeast NMT with octapeptides. The class given is biochemical. The settings on record: ratio of the Km, Rocque et al. 1993 data. From the text:
The enzyme Myristoyl-CoA:protein N-myristoyltransferase from Saccharomyces cerevisiae has been subject to extensive kinetic measurements to examine its substrate specificity (Towler, D. A., et al., Annu. Rev. Biochem. 57:69-99 (1988)). […] However, the relation of the affinities, certifying which substrates are binding better than others, should remain constant.

Experiment [2] concerns the target T1, Myristoyl-CoA:protein N-myristoyltransferase from Saccharomyces cerevisiae. The settings on record: cited from earlier work; for Km: octapeptide substrate.
Setting [3] is: earlier publication, Towler et al. 1988.

Read-outs that look alike come from different tables or passages of the source.

For “GNAAAARR [octapeptide substrate of yeast NMT, derived from cAMP-dependent protein kinase]”, the “higher affinity (lower Km) than GSSKSKPK” value in experiment [1] was 3 fold. Also, the Km in experiment [2] (Rocque et al. 1993) was 31 µM; in experiment [2] (setting [3]), 60 µM.
Consider “GPAAAARR [octapeptide, mutation of […] with proline on position 2]”, for which the “ability to become myristoylated” value in experiment [2] (mutation of octapeptide GNAAAARR to GPAAAARR, Towler et al. 1988) is on record as “loss of the ability to become myristoylated”.
With “GSSKSKPK [octapeptide substrate of yeast NMT]”, the figures for the Km in experiment [2] (Rocque et al. 1993) and in experiment [2] (setting [3]) were 105 µM and 40 µM, respectively.
